test: soluble on expression in E. coli; label from the status in PepcDB or PDB records

| Sequence | soluble on expression in E. coli |
| --- | --- |
| MGSSHHHHHHSSGLVPRGSHMLPKPDQINQIIVLLNIYHGKKKPSEIAREMDITLQGVIYHMKNLRRDGLIDEENRITKKGFDFLYRQLSDMREFITSNILDLDSLMVWEAIAAEDITAGSTVHLRMKGGYLYAFLSGGGATGRAVNDSQAGGLVGITNLSGLIDVNFGKLSIIVIPDSIDGGISERLKKAAADLSPALFAAMGEAGYVALKNIGIEPDIEYSALQAAFEASVRGQNVVLVTSRRRLHYSMAEIPQLENRYNPVKANITDLS | soluble |
| MGSSHHHHHHSSGLVPRGSHMNIPRFGVKTDQEELLAQELENLNKWGLNIFCVSDYAGGRSLTCIMYMIFQERDLLKKFRIPVDTMVTYMLTLEDHYHADVAYHNSLHAADVLQSTHVLLATPALDAVFTDLEILAALFAAAIHDVDHPGVSNQFLINTNSELALMYNDESVLENHHLAVGFKLLQEDNCDIFQNLSKRQRQSLRKMVIDMVLATDMSKHMTLLADLKTMVETKKVTSSGVLLLDNYSDRIQVLRNMVHCADLSNPTKPLELYRQWTDRIMAEFFQQGDRERERGMEISPMCDKHTASVEKSQVGFIDYIVHPLWETWADLVHPDAQEILDTLEDNRDWYYSAI | soluble |
| MGSSHHHHHHSSGLVPRGSHMRTVTGAILAMNLEVKDFVHRDVEEADRRLREIGARKILLQLPDGLKPYAFDYFTYLSQRYDVILSSSPVYGACDIGPSYLYDRVDAIVQVGHSIMRNVKYPRPVIFIEHYRTVDVEDINTEALKNYRRIGLIYSIQYRPVADRVKRILESKGFEVIIGRSDRRMTYDGQVLGCNFSSVHSVEAEVEAFVIVSTGSFHALGSQISTERPVFLLDLNEMSLRSMEKEADTFIRKRYAQIYRAMDAKRICFLVDTRIGQRREKLARMLMDRARDLGKEAVLAYTDNISDQDIQNMGCDLAVYTGCPRVPIDDQDRFTVPVLTPAEFSMAFFKSSKRYVLDEIVSVDEFTDQ | soluble |
| MGSSHHHHHHSSGLVSRRHMNIDMAALHAIEVDRGISVNELLETIKSALLTAYRHTQGHQTDARIEIDRKTGVVRVIARETDEAGNLISEWDDTPEGFGRIAATTARQVMLQRFRDAENERTYGEFSTREGEIVAGVIQRDSRANARGLVVVRIGTETKASEGVIPAAEQVPGESYEHGNRLRCYVVGVTRGAREPLITLSRTHPNLVRKLFSLEVPEIADGSVEIVAVAREAGHRSKIAVRSNVAGLNAKGACIGPMGQRVRNVMSELSGEKIDIIDYDDDPARFVANALSPAKVVSVSVIDQTARAARVVVPDFQLSLAIGKEGQNARLAARLTGWRIDIRGDAPPPPPGQPEPGVSRGMAHDR | soluble |
| MGSSLSNLNDGTNGLAMGPGLGDIPESCVACVFMYLTPPEICNLAGLNRSFRGAASSDSVWEKKLPENYQDLLDLLPPERYHSLSKKDIFAVLSRPIPFDDDNKEVWIDRVTGRVCMAISARGMSITGIEDRRYWNWIPTEESRFHVVAYLQQIWWFEVDGTVRFHLPPGVYSLSFRIHLGRFTKRLGRRVCHFELTHGWDLKPVRFSLSTSDGQEASCEYYLDDVERNEALGKHKRGYWIEYRVGEFIVNGSEPSTEIQWSMKQIDCTHSKGGLCVDSVFINPIGDVKEHKRKAVLKEA | soluble |
| MGSSTSTPAPPPKKNKPEGRKADNQILNSYQKSIVRNAWRHMSQKGPSNCGSTITRRMMARKSTIGDILDRSTLDYHNLQIVEFLQKVMQSLDEPDKISKLCQEIGQKHAKYRRSKGMKIDYWDKLGEAITETIREYQGWKIHRESLRAATVLVSYVVDQLRFGYSRGLHVQGSRETKEDDEE | not soluble |
| MGVFNYEIETTSVIPAARLFKAFILDGDNLVPKVAPQAISSVENIEGNGGPGTIKKINFPEGFPFKYVKDRVDEVDHTNFKYNYSVIEGGPVGDTLEKISNEIKIVATPDGGCVLKISNKYHTKGNHEVKAEQVKASKEMGETLLRAVESYLLAHSDAYN | soluble |
| MGVKTFQFPFAEQLEKVAEQFPTFQILNEEGEVVNEEAMPELSDEQLKELMRRMVYTRILDQRSISLNRQGRLGFYAPTAGQEASQIASHFALEKEDFILPGYRDVPQIIWHGLPLYQAFLFSRGHFHGNQIPEGVNVLPPQIIIGAQYIQAAGVALGLKMRGKKAVAITYTGDGGTSQGDFYEGINFAGAFKAPAIFVVQNNRFAISTPVEKQTVAKTLAQKAVAAGIPGIQVDGMDPLAVYAAVKAARERAINGEGPTLIETLCFRYGPHTMSGDDPTRYRSKELENEWAKKDPLVRFRKFLEAKGLWSEEEENNVIEQAKEEIKEAIKKADETPKQKVTDLISIMFEELPFNLKEQYEIYKEKESK | soluble |
| MGVLITGCGSRGDTEPLVALAARLRELGADARMCLPPDYVERCAEVGVPMVPVGRAVRAGAREPGELPPGAAEVVTEVVAEWFDKVPAAIEGCDAVVTTGLLPAAVAVRSMAEKLGIPYRYTVLSPDHLPSEQSQAERDMYNQGADRLFGDAVNSHRASIGLPPVEHLYDYGYTDQPWLAADPVLSPLRPTDLGTVQTGAWILPDQRPLSAELEGFLRAGSPPVYVGFGSGPAPAEAARVAIEAVRAQGRRVVLSSGWAGLGRIDEGDDCLVVGEVNHQVLFGRVAAVVHHGGAGTTTAVTRAGAPQVVVPQKADQPYYAGRVADLGVGVAHDGPTPTVESLSAALATALTPGIRARAAAVAGTIRTDGTTVAAKLLLEAISRQRSSVPAAKLAAALEHHHHHH | soluble |
| MGVSGYGHDDLGRETLDKVFAEVMGAEAAAVRVQFVSGTHAIACALFGVLRPGDEMLAVVGSPYDTLEEVIGLRGQGQGSLIEFGIKYRQLELTSQGSIDWQTLSTSITDHTRLVLIQRSCGYSWRPSLSIADIEKVVNLVKQQNPHTVCFVDNCYGEFIETQEPTHVGADLMAGSLIKNPGGTIVTAGGYVAGRADLVEAAACRLTAPGIGSYGGATFLEHHHHHH | soluble |
| MGVYVLNVTDNSTFKGILNISDTVTAVNDQTFDSSKDLIDYVSSQKLGDSVKVTYEEDGQTKSAEGKIITLENLEHHHHHH | not soluble |
| MGYRRFLQLVAHEFFHLWNVKRIRPKALEQFDYEAENYTPSLWFSEGATSYYDLLLPLRAGLYGVDSFLEALGKDLSRYLTTPGRKVQPLAESSFDAWVKLYRRDAYSDNQQMSYYLKGQLVCWLLDLEIRNHQPDLEHHHHHH | soluble |
| MGYVGIKIRLTDVAPQAQELFKKESLDVKENKVYLVAATLRPETMYGQTCCFVSPKIDYGVFDAGNGDYFITTERAFKNMSFQNLTPKRGYYKPLFTINGKTLIGSRIDAPYAVNKNLRVLPMETVLATKGTGVVTCVPSDSPDDFVTTRDLANKPEYYGIEKDWVQTDIVPIVHTEKYGDKCAEFLVNDLKIQSPKDSVQLANAKELAYKEGFYNGTMLIGKYKGDKVEDAKPKVKQDLIDEGLAFVYNEPELEHHHHHH | soluble |
| MHDVMELRNLSMVDLQTFNTQFSKITDRYWREIFRRQNDSHHPDHINVSRLQTANIITVLDENLPQGAIQELTITGLIPKPFSSRRCEVMRYLRERLSCSPDVELSFQGDQLRITNPTLNLENVPVLSMEKH | not soluble |
| MHEFSIVQSLLTLIEDYARENNAKSVTKVVVSIGVLSGVEPHLLEMAFNTFKEGTVAEKAELIMEIEKLKIKCMDCGKESEKEELNMLCPGCGSLNTQIISGQDMFLKSLELEVD | soluble |
| MHFVKKVPTTEEEKAAKQKEHTKRSQQFLHVRDKIVAKREKGEYDDEILSLTQAILEKNADIYTFWNIRRTTIELRMEANEKVQQSADAEEEEKTKSSQKIENLLAGELFLSYECIKSNPKSYSAWYQRAWALQRQSAPDFKKELALCEKALQLDCRNFHCWDHRRIVARMAKRSEAEELEFSNKLINDNFSNYSAWHYRSIALKNIHRDEKTGAPKIDDELIASELQKVKNAFFMDAEDQSAWTYTRWLLEVGSGKEFLRPESHTPIELISASFHGNNTTLVFSRAVTIQFLLTFVDTENTTGWRAFSSTSPNPTSSRVWQYLSDTPLRVVTSNPTDLENISWTELNEQPYVNLDRLKTIYDVVEVPQPAYIGELLEDCKQLIELEPKNKWPLYMRTLVLLEYQPIKSYEEIIKNLENLSENLDPKRSELYKSLISRQNLNFSIREQFERILGPDTDWLTCRYSKLTSLEGVEYLAGFVGSADFSGNRLKEIQRIVLPNLKSLTINENPIESLPPSPCLSHLTFFSIAGTQIASVSAVMPFFQTIPSLDRLVFCETPLVEKTEELRAQLPGVRLIPHWL | soluble |

Source: the DeepSol protein solubility set
